Experimental data as given in patent publication US20130267025A1.

Tests used:
[1] = target: V5-tagged Tctex-1 (V5-Tctex-1 fusion protein), expressed from pcDNA3.2/V5/GW/D-TOPO (human) (UniProt P63172); test: cell-based or functional assay
[2] = target: endogenous Tctex-1 protein of PC3 human prostate cancer cells (human) (UniProt P63172); test: cell-based or functional assay
Chain of endogenous Tctex-1 protein of PC3 human prostate cancer cells (human) (P63172 whole entry): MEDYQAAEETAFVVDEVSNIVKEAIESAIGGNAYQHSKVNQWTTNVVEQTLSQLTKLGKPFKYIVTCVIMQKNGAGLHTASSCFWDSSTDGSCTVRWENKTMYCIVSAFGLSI

Chain of V5-tagged Tctex-1 (V5-Tctex-1 fusion protein), expressed from pcDNA3.2/V5/GW/D-TOPO (human) (P63172 whole entry, the tested form may be a part): as the sequence (P63172 whole entry) above

Q: “REIC/Dkk-3 protein overexpressed from adenovirus REIC/Dkk-3 (Ad-REIC) in PC3 cells (from UniProt Q9UBP4 22-350)” was tested. Which apoptosis incidence (Hoechst 33342) in PC3 cells treated with Ad-REIC, group treated with the Tctex-1 expression plasmid [1] did it give?
A: 75%

Q: What about the apoptosis incidence (Hoechst 33342) in PC3 cells treated with Ad-REIC, group treated with shRNA-Tctex-1 [2] of the same substance?
A: 15%

Q: What about the apoptosis incidence (Hoechst 33342) in PC3 cells treated with Ad-REIC, group treated with the GFP plasmid [2] of the same substance?
A: 30%
